T1: cMSLN-His-Avi (cynomolgus, single biotin on the Avi tag in the biotinylated form)
T1 construct: Monomeric; also called cyno MSLN-His-Avi; cMSLN-Avi-His
T1 chain: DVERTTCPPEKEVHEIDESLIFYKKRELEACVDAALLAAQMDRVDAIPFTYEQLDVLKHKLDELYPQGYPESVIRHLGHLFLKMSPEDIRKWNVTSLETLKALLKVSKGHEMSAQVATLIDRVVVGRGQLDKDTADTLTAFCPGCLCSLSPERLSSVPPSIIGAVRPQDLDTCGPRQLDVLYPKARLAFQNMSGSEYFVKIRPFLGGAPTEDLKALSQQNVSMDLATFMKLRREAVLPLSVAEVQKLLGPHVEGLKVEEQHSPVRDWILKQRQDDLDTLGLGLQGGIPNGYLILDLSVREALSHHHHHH


What was measured:
[1] = biological target: T2, endogenous cell surface human MSLN (human, UniProt Q13421 296-598); assay: flow cytometry, NCI-H226 cells + 20 nM soluble MSLN
T2 construct: whole, on cells; The cell line is named under assay; also called cell-surface MSLN on NCI-H226, OVCAR-3 and AsPC-1 cells
Method: (§1) To confirm binding to cell surface MSLN, mAb² listed in Table 9 were analysed for binding to endogenous cell surface MSLN on the human lung cancer cell line NCI-H226. In addition, and because MSLN can be found in blood in a shed soluble form, there is a risk that this circulating MSLN might affect exposure and ultimately potency of our mAb². To confirm that presence of soluble MSLN has minimal impact, additional binding experiments to NCI-H226 cells were performed in the presence of 20 nM soluble MSLN which is 10-20 times the level of soluble MSLN found to be of diagnostic value for defining malignant mesothelioma and lung cancer patients as MSLN positive (Cui et al., 2014). Briefly, NCI-H226 cells (ATCC CRL-5826) were harvested from T175 cell culture flasks using Accutase (Gibco, A11105-01).
(§2) In both cases, cells were centrifuged at 1200 rpm for 3 min and resuspended in ice cold FACS buffer made up of DPBS (Life Technologies, 14190169) and 1% BSA (Sigma-Aldrich, A7906) at 2×10⁶ cells/ml and 50 μl per well was seeded in a 96-well V-bottom plate (Costar, 3894). All antibodies tested were diluted in FACS buffer in 120 μl at a concentration range of 0.01-200 nM (4-fold dilutions). The NCI-H226 cells were then centrifuged, supernatant removed and cells resuspended in 100 μl of each mAb dilution and incubated at 4° C. for 45 min. Cells were washed twice by centrifugation with 150 μl FACS buffer, resuspended in 100 μl containing goat anti-human IgG (γ-chain specific) F(ab')2 fragment-R-Phycoerythrin antibody (Sigma, P8047) diluted 1:1000 in FACS buffer and incubated at 4° C. for 45 min. The cells were washed once with 150 μl FACS buffer and then with 150 μl DPBS, resuspended in 150 μl DPBS containing DAPI (Biotium, 40043) at 1:10.000 and read on the BDCantoII or iQue (Intellicyt).

[2] = biological target: T2, endogenous cell surface human MSLN; assay: flow cytometry, NCI-H226 cells
Method: as §1, §2

hMSLN-His-Avi [3] = biological target: T3, hMSLN-His-Avi (human, UniProt Q13421 296-598, single biotin on the Avi tag in the biotinylated form); assay: SPR, mAb2 captured on Protein G, hMSLN-His-Avi in solution
T3 construct: Monomeric; also called human MSLN-His-Avi; hMSLN-Avi-His
Method: (§3) The association time was 5 min and the dissociation time was 5 min. Running buffer was HBS-EP (GE Healthcare BR100188). Flow cells were regenerated by injecting Glycine-HCl pH2.1 at a flow rate of 30 μl/min for 15 seconds. The data was analysed as described in Example 7.1.

hMSLN-His-Avi [4] = biological target: T3, hMSLN-His-Avi; assay: SPR, hMSLN-His-Avi immobilised ~100 RU, mAb2 injected
Method: (§4) 7.1 Binding of CD137/MSLN mAb2 to Human MSLN Under Avid Conditions—Antigen Capture Method Binding of all mAb^2 to MSLN immobilised on a BIAcore chip was tested to determine the binding affinity to human MSLN under avid conditions, where a high concentration of immobilised antigen is available to allow the antibody to bind avidly. […] The association time was 5 min and the dissociation time was 10 min. Running buffer was HBS-EP (GE Healthcare BR100188). Flow cells were regenerated by injecting Glycine-HCl pH1.5 at a flow rate of 30 μl/min for 30 seconds. Data were analysed by double referencing against a flow cell which was intentionally left blank (no antigen coating). The binding kinetics were fitted with a 1:1 Langmuir model to generate binding association (k_a) and dissociation (k_d) rates. Equilibrium binding constants (K_D) were calculated by dividing the dissociation rate by the association rate for each sample. Data analysis was performed with BiaEvaluation software version 3.2.

cMSLN-His-Avi = biological target: T1, cMSLN-His-Avi; assay: SPR, mAb2 captured on Protein G, cMSLN-His-Avi in solution
Method: as §3

hMSLN-His-Avi [5] = biological target: T3, hMSLN-His-Avi; assay: ratio of SPR KDs
Method: as §4, §3

[6] = biological target: human CD137 on primary human CD8+ T cells (human, UniProt Q07011 24-255); assay: cell-based or functional assay
Chain of human CD137 on primary human CD8+ T cells (Q07011 24-255): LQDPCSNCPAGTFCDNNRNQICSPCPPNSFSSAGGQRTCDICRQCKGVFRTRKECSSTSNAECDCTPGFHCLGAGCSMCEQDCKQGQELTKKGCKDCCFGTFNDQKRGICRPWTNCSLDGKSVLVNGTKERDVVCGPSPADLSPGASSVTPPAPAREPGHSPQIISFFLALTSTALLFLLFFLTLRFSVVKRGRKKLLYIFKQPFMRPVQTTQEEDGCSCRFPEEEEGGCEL

T2 sequence (Q13421 other isoform, or with tags, fused parts or gaps limits assumed): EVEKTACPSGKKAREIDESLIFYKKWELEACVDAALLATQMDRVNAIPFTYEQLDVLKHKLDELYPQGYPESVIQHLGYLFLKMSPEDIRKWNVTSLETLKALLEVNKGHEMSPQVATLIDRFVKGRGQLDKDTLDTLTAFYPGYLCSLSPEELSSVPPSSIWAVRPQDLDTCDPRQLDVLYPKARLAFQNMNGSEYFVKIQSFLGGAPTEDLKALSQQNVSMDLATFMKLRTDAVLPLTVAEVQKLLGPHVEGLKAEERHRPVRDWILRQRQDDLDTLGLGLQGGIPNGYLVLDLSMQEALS
T3 sequence (Q13421 other isoform, or with tags, fused parts or gaps): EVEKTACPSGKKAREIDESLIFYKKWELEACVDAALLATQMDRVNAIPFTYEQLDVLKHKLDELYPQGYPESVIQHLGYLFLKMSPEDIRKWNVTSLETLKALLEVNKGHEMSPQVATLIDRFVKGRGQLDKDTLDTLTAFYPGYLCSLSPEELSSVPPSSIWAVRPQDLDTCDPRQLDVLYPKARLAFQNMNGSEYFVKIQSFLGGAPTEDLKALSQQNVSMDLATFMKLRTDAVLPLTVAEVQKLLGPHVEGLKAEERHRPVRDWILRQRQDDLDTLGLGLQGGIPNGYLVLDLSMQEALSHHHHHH

| Binder | EC50 [1] | Emax (MFI) [1] | EC50 [2] | Emax (MFI) [2] | Kd (hMSLN-His-Avi [3]) | Kd (hMSLN-His-Avi [4]) | Kd (cMSLN-His-Avi) | KD ratio in solution/immobilised human MSLN (hMSLN-His-Avi [5]) | Emax (IL-2 pg/ml), NCI-H226 co-culture, Donor A [6] | Emax (IL-2 pg/ml), NCI-H226 co-culture, Donor B [6] | IL-2 release EC50, NCI-H226 co-culture, Donor A [6] | IL-2 release EC50, NCI-H226 co-culture, Donor B [6] |
| --- | --- | --- | --- | --- | --- | --- | --- | --- | --- | --- | --- | --- |
| FS22-172-003-AA/FS28-024 (bispecific antibody, human IgG1, kappa, L234A L235A, V domains shown, IgG1 mAb^2 with LALA; also called FS28-024 in CD137 mAb^2 format) VH: EVQLLESGGGLVQPGGSLRLSCAASGFTLSYSSMSWVRQAPGKGLEWVSFITPSTGYTHYADSVKGRFTISRDNSKNTLYLQMNSLRAEDTAVYYCARRALTFDYWGQGTLVTVSS VL: EIVLTQSPGTLSLSPGERATLSCRASQSVSSSYLAWYQQKPGQAPRLLIYGASSRATGIPDRFSGSGSGTDFTLTISRLEPEDFAVYYCQQASSYPLTFGQGTKVEIKR | 3.05 nM | 792000 MFI | 0.389 nM | 773000 MFI | 46.5 nM | 0.39 nM | 170 nM | 119 | 1120 pg/mL | 1380 pg/mL | 0.02 nM | 0.03 nM |
| FS22-172-003-AA/FS28-256 (bispecific antibody, human IgG1, kappa, L234A L235A, V domains shown, IgG1 mAb^2 with LALA) VH: EVQLLESGGGLVQPGGSLRLSCAASGFTFTNTYMSWVRQAPGKGLEWVSNISPTYSTTNYADSVKGRFTISRDNSKNTLYLQMNSLRAEDTAVYYCARYNSYQGGLDYWGQGTLVTVSS VL: EIVLTQSPGTLSLSPGERATLSCRASQSVSSSYLAWYQQKPGQAPRLLIYGASSRATGIPDRFSGSGSGTDFTLTISRLEPEDFAVYYCQQSYYYPITFGQGTKVEIKR | 52.9 nM | 200000 MFI | 47.1 nM | 174000 MFI | 1210 nM | 36 nM | 848 nM | 34 | 1260 pg/mL | 8590 pg/mL | 34 nM | 22.2 nM |
| FS22-172-003-AA/FS28-024-051 (bispecific antibody, human IgG1, kappa, L234A L235A, V domains shown, IgG1 mAb^2 with LALA) VH: EVQLLESGGGLVQPGGSLRLSCAASGFTLSYSSMSWVRQAPGKGLEWVSFITPSTGYTHYADSVKGRFTISRDNSKNTLYLQMNSLRAEDTAVYYCARRALIFDYWGQGTLVTVSS VL: EIVLTQSPGTLSLSPGERATLSCRASQSVSSSYLAWYQQKPGQAPRLLIYGASSRATGIPDRFSGSGSGTDFTLTISRLEPEDFAVYYCQQASSYPLTFGQGTKVEIKR | 3.06 nM | 798000 MFI | 0.477 nM | 768000 MFI | 42.4 nM | 0.4 nM | 153 nM | 105 | 1130 pg/mL | 1800 pg/mL | 0.08 nM | 0.04 nM |
| FS22-172-003-AA/FS28-256-014 (bispecific antibody, human IgG1, kappa, L234A L235A, V domains shown, IgG1 mAb^2 with LALA) VH: EVQLLESGGGLVQPGGSLRLSCAASGFTFTDTYMSWVRQAPGKGLEWVSNISPTYSTTNYADSVKGRFTISRDNSKNTLYLQMNSLRAEDTAVYYCARYNAYAAGLDYWGQGTLVTVSS VL: EIVLTQSPGTLSLSPGERATLSCRASQSVSSSYLAWYQQKPGQAPRLLIYGASSRATGIPDRFSGSGSGTDFTLTISRLEPEDFAVYYCQQSYYYPITFGQGTKVEIKR | 1.09 nM | 514000 MFI | 0.727 nM | 476000 MFI |  |  |  |  | 1360 pg/mL |  | 3.58 nM |  |
| FS22-172-003-AA/FS28-256-018 (bispecific antibody, human IgG1, kappa, L234A L235A, V domains shown, IgG1 mAb^2 with LALA) VH: EVQLLESGGGLVQPGGSLRLSCAASGFTFTQTYMSWVRQAPGKGLEWVSNISPTYSTTNYADSVKGRFTISRDNSKNTLYLQMNSLRAEDTAVYYCARYNAYQIGLDYWGQGTLVTVSS VL: EIVLTQSPGTLSLSPGERATLSCRASQSVSSSYLAWYQQKPGQAPRLLIYGASSRATGIPDRFSGSGSGTDFTLTISRLEPEDFAVYYCQQSYYYPITFGQGTKVEIKR | 4.09 nM | 357000 MFI | 3.6 nM | 348000 MFI |  |  |  |  | 1260 pg/mL | 903 pg/mL | 3.22 nM | 3.71 nM |

Now from value to binder:

| EC50 [1] | Emax (MFI) [1] | EC50 [2] | Emax (MFI) [2] | Kd (hMSLN-His-Avi [3]) | Kd (hMSLN-His-Avi [4]) | Kd (cMSLN-His-Avi) | KD ratio in solution/immobilised human MSLN (hMSLN-His-Avi [5]) | Emax (IL-2 pg/ml), NCI-H226 co-culture, Donor A [6] | Emax (IL-2 pg/ml), NCI-H226 co-culture, Donor B [6] | IL-2 release EC50, NCI-H226 co-culture, Donor A [6] | IL-2 release EC50, NCI-H226 co-culture, Donor B [6] | Binder |
| --- | --- | --- | --- | --- | --- | --- | --- | --- | --- | --- | --- | --- |
| 28.4 nM | 4930 MFI | 22.9 nM | 4930 MFI | 248 nM | 50.5 nM | 294 nM | 5 |  |  |  |  | FS22-172-003-AA/FS28-185 (bispecific antibody, human IgG1, kappa, L234A L235A, V domains shown, IgG1 mAb^2 with LALA; also called FS28-185 in CD137 mAb^2 format) VH: EVQLLESGGGLVQPGGSLRLSCAASGFTFTTSAMSWVRQAPGKGLEWVSRINPYEGETNYADSVKGRFTISRDNSKNTLYLQMNSLRAEDTAVYYCARGWSIATYYKSAMDYWGQGTLVTVSS VL: EIVLTQSPGTLSLSPGERATLSCRASQSVSSSYLAWYQQKPGQAPRLLIYGASSRATGIPDRFSGSGSGTDFTLTISRLEPEDFAVYYCQQSSYSAPVTFGQGTKVEIKR |
| 2.77 nM | 788000 MFI | 0.579 nM | 783000 MFI | 46.4 nM | 0.42 nM | 166 nM | 111 | 1010 pg/mL | 1440 pg/mL | 0.07 nM | 0.04 nM | FS22-172-003-AA/FS28-024-053 (bispecific antibody, human IgG1, kappa, L234A L235A, V domains shown, IgG1 mAb^2 with LALA) VH: EVQLLESGGGLVQPGGSLRLSCAASGFTLSYSSMSWVRQAPGKGLEWVSFITPSTGYTHYADSVKGRFTISRDNSKNTLYLQMNSLRAEDTAVYYCARRALVFDYWGQGTLVTVSS VL: EIVLTQSPGTLSLSPGERATLSCRASQSVSSSYLAWYQQKPGQAPRLLIYGASSRATGIPDRFSGSGSGTDFTLTISRLEPEDFAVYYCQQASSYPLTFGQGTKVEIKR |
| 0.856 nM | 424000 MFI | 0.729 nM | 441000 MFI |  |  |  |  | 1100 pg/mL |  | 1.63 nM |  | FS22-172-003-AA/FS28-256-005 (bispecific antibody, human IgG1, kappa, L234A L235A, V domains shown, IgG1 mAb^2 with LALA) VH: EVQLLESGGGLVQPGGSLRLSCAASGFTFTETYMSWVRQAPGKGLEWVSNISPTYSTTNYADSVKGRFTISRDNSKNTLYLQMNSLRAEDTAVYYCARYNSYQGGLDYWGQGTLVTVSS VL: EIVLTQSPGTLSLSPGERATLSCRASQSVSSSYLAWYQQKPGQAPRLLIYGASSRATGIPDRFSGSGSGTDFTLTISRLEPEDFAVYYCQQALGYPHTFGQGTKVEIKR |

— patent publication US12319739 (F STAR DELTA, dated 2025)
